Here are results for seven substances from patent US20120196803A1.

This experiment deals with GFRα1 receptor/IgG Fc fusion. The experiment is described as follows: double sandwich ELISA, GFRα1/IgG Fc captured on plate. In general terms: ELISA stands for enzyme-linked immunosorbent assay.

Turning to “An2-Flex-hGDNF (N-terminal Angiopep-2 fused to hGDNF^78-211 through a flexible ((GGGGS)2) linker) (from UniProt P39905 78-211)”, the Bmax stood at 0.161 A405/min and the Kd was 0.16 nM.

In turn, “An2-Hel-hGDNF (N-terminal Angiopep-2 fused to hGDNF^78-211 through a helical (A(EAAAK)2A) linker) (from UniProt P39905 78-211)” returned a Bmax of 0.142 A405/min and a Kd of 0.27 nM.

“An2-Rig-hGDNF (N-terminal Angiopep-2 fused to hGDNF^78-211 through a rigid (PAPAP) linker) (from UniProt P39905 78-211)” yielded a Bmax of 0.202 A405/min and a Kd of 0.82 nM.

Substance “An2-hGDNF (N-terminal Angiopep-2 fused to hGDNF^78-211) (from UniProt P39905 78-211)” registered a Bmax of 0.146 A405/min and a dissociation constant Kd of 0.68 nM.

In the case of “An2NT-hGDNF (N-terminal reversed sequence Angiopep-2 fused to hGDNF^78-211) (from UniProt P39905 78-211)”, the Bmax is 0.161 A405/min and the Kd was 0.31 nM.

In the case of “GDNF (hGDNF^78-211) (from UniProt P39905 78-211) (ligand)”, the Bmax was 0.155 A405/min and the Kd turned out to be 0.24 nM.

Take “hGDNF-An2 (C-terminal Angiopep-2 fused to hGDNF^78-211) (from UniProt P39905 78-211)”: the Bmax is 0.155 A405/min and the Kd was determined as 0.53 nM.

What is called Kd is the constant that tells how readily two partners part at equilibrium. Read a low Kd as tighter binding.
